Patent EP4803541A1 (Changchun Genescience Pharmaceutical Co., Ltd., dated 2026)

Columns and labels:
GH (GH stock solution) [1] = molecular target: GH (GH stock solution) (UniProt P01241); assay: affinity chromatography, VHH-conjugated medium loaded with GH stock solution; medium in 0.5M NaOH 24h
GH (GH stock solution) [2] = molecular target: GH (GH stock solution) (UniProt P01241); assay: loss of dynamic binding capacity of the conjugated medium for GH after 0.1M NaOH 32h
GH (GH stock solution) [3] = molecular target: GH (GH stock solution) (UniProt P01241); assay: affinity chromatography, VHH-conjugated medium loaded with GH stock solution; medium in 0.1M NaOH 0h
GH (GH stock solution) [4] = molecular target: GH (GH stock solution) (UniProt P01241); assay: loss of dynamic binding capacity of the conjugated medium for GH after 0.5M NaOH 24h
GH (GH stock solution) [5] = molecular target: GH (GH stock solution) (UniProt P01241); assay: affinity chromatography, VHH-conjugated medium loaded with GH stock solution; medium in 0.5M NaOH 0h
GH (GH stock solution) [6] = molecular target: GH (GH stock solution) (UniProt P01241); assay: affinity chromatography, VHH-conjugated medium loaded with GH stock solution; medium in 0.1M NaOH 32h
GH (GH stock solution) [7] = molecular target: GH (GH stock solution) (UniProt P01241); assay: affinity chromatography, VHH-conjugated medium loaded with GH stock solution; medium in 0.1M NaOH 24h
GH (GH stock solution) [8] = molecular target: GH (GH stock solution) (UniProt P01241); assay: affinity chromatography, VHH-conjugated medium loaded with GH stock solution; medium in 0.5M NaOH 6h
rhGH protein = rhGH protein (UniProt: P01241) (human) (UniProt P01241); assay: ELISA on coated rhGH, anti-6*His HRP; sample after 0.5M NaOH 24h, against WT; parameters: unit not given beside the values
Sequence of rhGH protein (UniProt: P01241) (human) (UniProt P01241) (P01241 27-217 limits assumed, one chain of several): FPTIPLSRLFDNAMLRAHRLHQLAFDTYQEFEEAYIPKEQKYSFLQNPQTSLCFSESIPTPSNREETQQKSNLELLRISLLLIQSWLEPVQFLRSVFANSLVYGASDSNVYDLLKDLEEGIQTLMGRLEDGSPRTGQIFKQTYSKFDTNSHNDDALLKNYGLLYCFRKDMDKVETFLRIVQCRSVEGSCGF

[9] = molecular target: T1, rhGH protein (UniProt: P01241) (human, UniProt P01241 27-217); assay: ELISA on coated rhGH, anti-6*His HRP; sample after 0.3 M NaOH 24h
T1 construct: Coated at 5 ug/ml in the ELISA; also called human growth hormone
T1 sequence (P01241 27-217 limits assumed, one chain of several): as above

[10] = molecular target: T1, rhGH protein (UniProt: P01241); assay: ELISA on coated rhGH; sample after 0.5M NaOH 24h

Sequence of GH (GH stock solution) (P01241 27-217 limits assumed): as the sequence (P01241 27-217 limits assumed, one chain of several) above

Row | dynamic binding capacity at 10% breakthrough (GH (GH stock solution) [1]) | DBC decay rate (GH (GH stock solution) [2]) [%] | dynamic binding capacity at 10% breakthrough (GH (GH stock solution) [3]) | residual DBC (a decrease of DBC) (GH (GH stock solution) [4]) [%] | dynamic binding capacity at 10% breakthrough (GH (GH stock solution) [5]) | dynamic binding capacity at 10% breakthrough (GH (GH stock solution) [6]) | dynamic binding capacity at 10% breakthrough (GH (GH stock solution) [7]) | dynamic binding capacity at 10% breakthrough (GH (GH stock solution) [8]) | EC50 against that of the WT after 0.5M alkali (% higher than WT) (rhGH protein) | binding result [9] | binding result [10] | Binder
1 | 9.06 | < 6 | 16.3 | < 49 | 16.3 | 15.4 | 16.3 | 13.5 |  |  | binds | M78 (Second round) (VHH, Entry already carries A57D; G134R; D102Y); tail DDDDK-SGGRGS-HHHHHH) VHH: QVQLVESGGGLAQAGGSLRLSCAVSGMPEFARAMGWFRQAPGKERELLAAIEGIGDTTYYADSVKGRFTISRDDAANTVLLQMNSLKPDDTAVYYCAAAFSVTIPTRARHWVYWGPGTLVTVSS
2 | 8.24 | < 6 | 15 | < 49 | 14.7 | 15.4 | 15.8 | 13.2 |  |  | binds | M74 (Second round) (VHH, Entry already carries A57D; G134R; R100eE); tail DDDDK-SGGRGS-HHHHHH) VHH: QVQLVESGGGLAQAGGSLRLSCAVSGMPEFARAMGWFRQAPGKERELLAAIEGIGDTTYYADSVKGRFTISRDDAANTVLLQMNSLKPDDTAVYYCAAAFSVTIPTRAEHWVDWGPGTLVTVSS
3 |  |  |  |  |  |  |  |  |  | binds |  | M25 (First round) (VHH, tail DDDDK-SGGGGS-HHHHHH) VHH: QVQLVESGGGLAQAGGSLRLSCAVSGMPEFARAMGWFRQAPGKERELLAAIEGIGATTYYADSVKGRFTISRDDAANTVLLQMNSLKPDDTAVYYCAAAFSVTIPTRARHWDDWGPGTLVTVSS
4 |  |  |  |  |  |  |  |  |  | binds |  | M29 (First round) (VHH, tail DDDDK-SGGGGS-HHHHHH) VHH: QVQLVESGGGLAQAGGSLRLSCAVSGMPEFARAMGWFRQAPGKERELLAAIEGIGAKTYYADSVKGRFTISRDDAANTVLLQMNSLKPDDTAVYYCAAAFSVTIPTRARHWVDWGPGTLVTVSS

Second part, the binder before the results:

Row | Binder | dynamic binding capacity at 10% breakthrough (GH (GH stock solution) [1]) | DBC decay rate (GH (GH stock solution) [2]) [%] | dynamic binding capacity at 10% breakthrough (GH (GH stock solution) [3]) | residual DBC (a decrease of DBC) (GH (GH stock solution) [4]) [%] | dynamic binding capacity at 10% breakthrough (GH (GH stock solution) [5]) | dynamic binding capacity at 10% breakthrough (GH (GH stock solution) [6]) | dynamic binding capacity at 10% breakthrough (GH (GH stock solution) [7]) | dynamic binding capacity at 10% breakthrough (GH (GH stock solution) [8]) | EC50 against that of the WT after 0.5M alkali (% higher than WT) (rhGH protein) | binding result [9] | binding result [10]
5 | M20 (First round) (VHH) VHH: QVQLVESGGGLAQAGGSLRLSCAVSGMPEFARAMGWFRQAPGKERELVAAIEGIGATTYYADSVKGRFTISRDDAANTVLLQMNSLKPDDTAVYYCAAAFSVTIPTRARHWVDWGPGTLVTVSS | 10.2 | < 6 | 19.6 | < 49 | 19.6 | 16.9 | 18 | 14.3 | 50 |  | 
6 | WT (with tag), unmodified GH single-domain antibody molecule (VHH) VHH: QVQLVESGGGLAQAGGSLRLSCAVSGMPEFARAMGWFRQAPGKERELLAAIEGIGATTYYADSVKGRFTISRDDAANTVLLQMNSLKPDDTAVYYCAAAFSVTIPTRARHWVDWGPGTLVTVSS | 3.39 | 35 | 22.3 | 85 | 22.3 | 14.7 | 16.2 | 5.78 |  |  | 
7 | M31 (First round) (VHH, tail DDDDK-SGGGGS-HHHHHH) VHH: QVQLVESGGGLAQAGGSLRLSCAVSGMPEFARAMGWFRQAPGKERELLAAIEGIGATTYYADSVKGRFTISRDDAANTVLLQMNSLKPDDTAVYYCAAAFSVTIPTRAEHWVDWGPGTLVTVSS |  |  |  |  |  |  |  |  |  | binds | 
8 | M8 (First round) (VHH, tail DDDDK-SGGGGS-HHHHHH) VHH: QVQLVESGGGLAQAGGSLRLSCAVSGMPEFARAMGWFRQAPGKERELLAAIEGIGATTYYADSVKGRFTISRDDAANTVLLQMNSLKPDDTAVYYCAAAFSVTIPTRARHWVYWGPGTLVTVSS |  |  |  |  |  |  |  |  |  | binds | 
